Tests used:
[1] = target: FKBP fused to the N terminus of TRF2 ΔB (FKBP-TRF2 ΔB), Myc-tagged
[2] = target: TRF2 (endogenous in HeLa cells) (human (endogenous in HeLa)) (UniProt Q15554); assay: proximity ligation; Duolink in situ PLA in fixed HeLa cells with anti-TRF2 and anti-histone H3 antibodies; cells scored for 10 or more signals in nuclei
Chain of UniProt Q15554 (Q15554 whole entry): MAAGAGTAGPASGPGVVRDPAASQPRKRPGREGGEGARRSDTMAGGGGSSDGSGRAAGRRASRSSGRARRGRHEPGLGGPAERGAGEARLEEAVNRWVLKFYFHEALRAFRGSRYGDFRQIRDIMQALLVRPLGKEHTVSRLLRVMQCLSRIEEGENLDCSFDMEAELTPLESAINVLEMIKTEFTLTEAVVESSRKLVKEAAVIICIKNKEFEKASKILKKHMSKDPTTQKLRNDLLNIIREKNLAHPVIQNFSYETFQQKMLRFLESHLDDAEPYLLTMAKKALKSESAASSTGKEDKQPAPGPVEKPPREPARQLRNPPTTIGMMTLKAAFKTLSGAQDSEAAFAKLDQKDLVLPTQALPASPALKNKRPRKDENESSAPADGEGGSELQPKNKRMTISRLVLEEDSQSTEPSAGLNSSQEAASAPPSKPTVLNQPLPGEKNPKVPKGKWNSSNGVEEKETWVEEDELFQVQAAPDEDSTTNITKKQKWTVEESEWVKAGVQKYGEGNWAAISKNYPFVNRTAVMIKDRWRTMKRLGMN

Substance: FRB fused to the C terminus of histone H2B (H2B-FRB), HA-tagged
- generation of t-circles in FKBP-TRF2 ΔB-complemented MEFs expressing H2B-FRB, with A/C dimerizer for 48 h [1]: 50%

Substance: histone H3 (HeLa cells) (from UniProt P68431 1-136) (natural protein)
- percent of cells with more than 10 positive Duolink signals [2]: 26 % of cells

Reference: paper PMC5034068
